Data on one variant can be found in article PMC11306256.

The labels stand for the following.
B1: GST-tagged recombinant Xenopus APE1, wild type [Xenopus laevis] / itself (parent)
chain: MPKRGKKEEVCAAEPQEDGNEPEVKKGKKGAGKAAKEPEPVVLYEDAPDNVTSADGKKYTLKISSWNVDGIRAWIKKQGLNWVREEDPHIMCLQEIKCAEKLLPPDVKDMPEYPHKYWACPDEKEGYSGVAMLCKDKPLNVTYGIGIEEHDKEGRVITAEFDSFFVIAAYIPNSSRGLVRLDYRQRWDVDFRAYLKGLDSKKPLILCGDLNVAHQEIDLKNPKTNKKTPGFTPQERQGFGELLAEGYLDSFRELYPDKPSAYTFWTYMMNARAKNVGWRLDYFVLSKALRPALCDCKIRSKVMGSDHCPITLLMAI

The variants in one assay derive from B1. Put plainly: sucrose density gradient sedimentation, quantified immunoblot (self-association / oligomerization). Particulars: with itself; fraction #3 (low-mass peak, co-sediments with 75kD Conalbumin); n = 3; parent: 17; read off a plot.
On to chain 1 K25A K26A K33A, for which the percent of protein in gradient fraction was 23%.

The same assay, now with this note: with itself; fraction #7 (high-mass oligomer peak of WT); n = 3; parent: 16; read off a plot.
As for chain 1 K25A K26A K33A, the percent of protein in gradient fraction amounted to 6%.
